Entries after “also recorded” stand apart in the source; their conditions may differ.
Columns and labels:
[1] = test system: pre-formed A. fumigatus GAG biofilms; type: cell-based; settings: crystal violet
A. fumigatus GAG biofilm = assay: Inhibition of GAG-dependent A. fumigatus biofilm formation (crystal violet); type: cell-based; settings: 20 h in Brian media, crystal violet
[2] = Reducing sugar assay, substrate specificity; type: biochemical
Experimental: […] […] The pellets were washed twice with 350 μL PBS. The wash procedure included vortexing for 5 min, sonicated in a bath for 3 min, and manual mixing by pipetting to reach homogeneity. The final pellet was resuspended in 200 μL of PBS. Samples were treated with 10-20 μM protein and incubated at 26° C. Samples were taken at 24 h. […] Briefly, 20 μL of enzyme reaction was mixed with 20 μL of 0.5 M NaOH and 20 μL of MBTH/DTT solution (1.5 mg/L 3-methyl-2-benzothiazolinone hydrazine (MBTH) and 0.5 mg/L DTT). The samples were incubated at 80° C. for 15 min before the addition of 40 μL of acidic iron reagent (0.5% (FeNH4(SO4)2).12 H2O, 0.5% sulfamic acid, and 0.25 N HCl). Samples were diluted two-fold in water, before the absorbance was quantified at 620 nm.

[3] = test system: P. aeruginosa PAO1 pBADpsl; assay: Inhibition of Psl biofilm formation in static culture (crystal violet); type: cell-based, Pseudomonas aeruginosa; settings: specificity control
[4] = test system: Pel-dependent biofilms from P. aeruginosa PAO1 ΔwspFΔpslpBADpel; assay: Pel biofilm dispersal by enzyme in Pluronic F-127 gel; type: cell-based, Pseudomonas aeruginosa; settings: 100, 200 and 500 μg/mL in 20% Pluronic F-127, 1 h
Experimental: Poloxamer 407 (trade name Pluronic® F-127 or PF-127) is a hydrophilic non-ionic surfactant has been used as a drug delivery system for a number of routes of administration (Escobar-Chavez et al 2006). A 20% gel of PF-127 was prepared by mixing 1×PBS with Pluronic® F-127 at 4° C. until the polymer was dissolved. PelA47-303 was added at three concentrations; 100 μg/mL, 200 μg/mL and 500 μg/mL to this solution. Pel-dependent biofilms from strain P. aeruginosa PAO1 ΔwspFΔpslpBADpel were formed as described in Example 8. The buffer, gel and gels containing various concentrations of PelA47-303 were applied to the biofilm.

[5] = test system: A549 pulmonary epithelial cell line injured by A. fumigatus; assay: Chromium release epithelial cell damage assay; settings: 0.5 μM, 16 h
Experimental: The immortalized airway epithelial cell line A549 was loaded with chromium-51 by incubating monolayers grown in 24-well tissue culture plates with 3 mCi of ^51Cr at 37° C. in 5% CO2 for 24 h. Excess chromium was removed by washing with Hank's Balanced Salt Solution (HBSS). […] For testing germ tubes, conidia were grown for 7 h in SAB media at 37° C., then the fungus was collected and resuspended in DF12K media before 0.5 μM of hydrolase was added. The germ tubes were incubated with hydrolase for 1 h before being added to the A549 cells. After 16, 20 and 24 h of co-incubation, an aliquot of the medium above the cells was retrieved and replaced with fresh media. The cells were then lysed with 6 N NaOH and the lysate collected. The ^51Cr content of the medium and lysates was then measured in a gamma counter and the extent of epithelial cell damage was calculated as a function of the degree of ^51Cr release. Each strain was tested in triplicate, and all results were corrected for spontaneous chromium release by uninfected epithelial cells.
The methodology for prevention of epithelial cell damage caused by A. fumigatus using Sph352-298 is identical to that previously described in Example 19 for the use PelA47-303.

[6] = test system: P. aeruginosa PAO1 ΔwspFΔpslpBADpel; assay: Inhibition of Pel biofilm formation in static culture (crystal violet); settings: static culture
[7] = test system: Pel biofilms of P. aeruginosa PAO1 ΔwspFΔpslpBADpel; assay: Dispersal of pre-formed Pel biofilms (crystal violet); settings: 38 μM and 19 μM, 2 h
From the text: The methodology to generate pre-formed Pel biofilms is identical to that of Psl biofilms, described in Example 4 with the exception that the strain used is P. aeruginosa PAO1 ΔwspFΔpslpBADpel.

[8] = Reducing sugar assay on purified GAG; type: biochemical, A. fumigatus
Experimental: Crude GAG was isolated from A. fumigatus biofilms. 200 μL GAG aliquots were centrifuged to pellet the gelatinous fraction. The pellets were washed twice with 350 μL PBS. The wash procedure included vortexing for 5 min, sonicated in a bath for 3 min, and manual mixing by pipetting to reach homogeneity. The final pellet was resuspended in 200 μL of PBS. Samples were treated with 10-20 μM protein and incubated at 26° C. Samples were taken at 24 h. GAG hydrolysis was quantified using a reducing sugar assay as described previously (Anthon & Barrett 2002) with slight modifications. Briefly, 20 μL of enzyme reaction was mixed with 20 μL of 0.5 M NaOH and 20 μL of MBTH/DTT solution (1.5 mg/L 3-methyl-2-benzothiazolinone hydrazine (MBTH) and 0.5 mg/L DTT). The samples were incubated at 80° C. for 15 min before the addition of 40 μL of acidic iron reagent (0.5% (FeNH4(SO4)2).12 H2O, 0.5% sulfamic acid, and 0.25 N HCl). Samples were diluted two-fold in water, before the absorbance was quantified at 620 nm.

[9] = test system: Psl biofilms of P. aeruginosa PAO1 pBADpsl; assay: Dispersal of pre-formed Psl biofilms (crystal violet); type: cell-based, Pseudomonas aeruginosa
[10] = test system: PNAG-overproducing E. coli biofilms; assay: Dispersal of pre-formed PNAG-dependent E. coli biofilms
Experimental: Bacterial cultures expressing Psl were inoculated as stated above and were grown at 37° C. overnight with shaking at 200 rpm. All cultures were diluted in 1:100 in LB and arabinose was added to a final concentration of 0.5% (w/v) to induce Psl biosynthesis. Media containing the Psl-producing cultures were supplemented with 200 μg/mL ampicillin and 100 μg/mL kanamycin. The cultures were incubated statically for 24 h at 26° C. to allow for biofilm formation. After incubation non-adherent cells and media were removed by washing the plate with deionized water three times. The wells were filled with 95 μL of 100 mM sodium HEPES buffer pH 7.0 followed by 5 μL of varying concentrations of each hydrolytic enzyme (2 nM-5 μM). Reactions were allowed to proceed for up to 60 min at 25° C. on a rotating nutator at which time, the reaction was quenched by washing the plates with deionized water. The wells were stained with 200 μL of 0.1% (w/v) crystal violet for 10 min, and washed with water three times. Crystal violet dye from Psi cultures was solubilized in 100 μL of 95% ethanol for 10 min with rotation, after which time the absorbance was measured at 595 nm using a SpectraMax M2 from Molecular Devices (Sunnyvale, Calif.). The amount of biofilm is proportional to the absorbance from staining with crystal violet (Merritt et al 2005). All reactions were completed in at least triplicate and 100 mM sodium HEPES buffer pH 7.0 was used as an untreated control. The addition of 2.5 mg/mL kanamycin to culture prior to biofilm formation was used as a positive control as no cell growth occurs.
PNAG-overproducing E. coli was grown at 37° C. overnight in LB broth supplement with 200 ug/mL ampicillin and 100 ug/mL kanamycin with shaking at 200 rpm. An E. coli μgaABCD knockout strain was used as a non-biofilm forming control for background straining.

[11] = purified protein
[12] = test system: P. aeruginosa PAO1 ΔwspFΔpslpBADpel biofilms with differentiated HL-60 cells; assay: HL-60 neutrophil killing of P. aeruginosa biofilm (CFU plating)
Experimental: Overnight cultures of P. aeruginosa PAO1 ΔwspFΔpslpBADpel were diluted to an OD600 of 0.05 in LB+0.5% arabinose and inoculated in a 96 well tissue culture-treated plate at a final volume of 100 μl/well. The plate was incubated statically at 28° C. for 20 h. Supernatants were aspirated and 100 μL of phenol red-free RPMI+10% Fetal Bovine Serum (FBS) containing 0.5 μM of PelA47-303 was added. The plate was incubated at room temperature on a Nutator for 1 h. Following pretreatment with hydrolase, 100 μL RPMI+10% FBS containing 6×10^6 differentiated HL-60 cells were added to the wells, and plate was incubated for 90 min at 37° C., 5% CO2. Wells were aspirated and supernatant was diluted between 1/200000 and 1/400000, and plated (50 μl) onto LB agar. To aspirated wells, 200 μL of “disruption solution” (PBS containing 2 μM of PelA47-303 and 2 μM PslG31-442) was added and plate was incubated at room temperature on the Nutator for 1-1.5 h. Wells were aspirated, diluted and plated onto LB agar as above.

B1: PelA47-303: soluble PelA hydrolase domain, residues 47-303, P. aeruginosa PAO1, SEQ ID NO: 12 (protein, listed as Pseudomonas aeruginosa)
chain: GGPSSVAFWYAERPPLAELSQFDWVVLEAAHLKPADVGYLKEQGSTPFAYLSVGEFDGDAAAIADSGLARGKSAVRNQAWNSQVMDLAAPSWRAHLLKRAAELRKQGYAGLFLDTLDSFQLQAEERREGQRRALASFLAQLHRQEPGLKLFFNRGFEVLPELPGVASAVAVESIHAGWDAAAGQYREVPQDDRDWLKGHLDALRAQGMPIVAIDYLPPERRDEARALAARLRSEGYVPFVSTPALDYLGVSDVEVQP
Question: Which results are given for B1?
Answer: dispersal of pre-formed GAG biofilm (in words) [1]: elimination of the GAG biofilm; concentration sufficient to prevent GAG biofilm formation (A. fumigatus GAG biofilm): ≥ 2 µM; hydrolysis of chitin and chitosan [2]: not significant over background hydrolysis; inhibition of Psl biofilm formation (in words) [3]: did not inhibit Psl biofilm formation; dispersal of Pel-dependent biofilm by enzyme in gel [4]: able to disperse the biofilm; also recorded: successfully dispersed the biofilm; epithelial cell injury by A. fumigatus, chromium release [5]: blocked the ability of A. fumigatus to induce pulmonary epithelial cell injury; enzyme concentration that prevented Pel biofilm formation [6]: 500 nM; dispersal of pre-formed Pel biofilm (in words) [7]: successfully dispersed the Pel biofilm; also recorded: biofilm dispersal after 2 hours; GAG hydrolysis, reducing ends (in words) ([8]; 10-20 μM protein, 26° C., 24 h): number of reducing ends in solution increased; reducing ends produced relative to Sph352-298 ([8]; under assay conditions): ~2 fold; dispersal of pre-formed Psl biofilm (in words) [9]: did not result in the loss of the Psl-dependent biofilm; dispersal of PNAG-dependent biofilms (in words) [10]: had no affect; concentration to which the protein could be concentrated [11]: 8000 to 10000 µg/mL; degree of microbial killing by HL-60 neutrophil cell line ([12]; 0.5 μM enzyme pretreatment, neutrophils alone approximately 22%): ~42%; bacterial killing relative to neutrophils alone ([12]; enzyme with neutrophils): ~2 fold
